Results: patent US7148338B2, “Nucleic acids encoding dipeptidyl peptidases” (The University of Sydney, priority 1999, dated 2006)

B1: DPP8: novel human dipeptidyl peptidase, amino acid sequence SEQ ID NO:1, 882 amino acids (protein, listed as Homo Sapiens)
chain: MAAAMETEQLGVEIFETADCEENIESQDRPKLEPFYVERYSWSQLKKLLADTRKYHGYMMAKAPHDFMFVKRNDPDGPHSDRIYYLAMSGENRENTLFYSEIPKTINRAAVLMLSWKPLLDLFQATLDYGMYSREEELLRERKRIGTVGIASYDYHQGSGTFLFQAGSGIYHVKDGGPQGFTQQPLRPNLVETSCPNIRMDPKLCPADPDWIAFIHSNDIWISNIVTREERRLTYVHNELANMEEDARSAGVATFVLQEEFDRYSGYWWCPKAETTPSGGKILRILYEENDESEVEIIHVTSPMLETRRADSFRYPKTGTANPKVTFKMSEIMIDAEGRIIDVIDKELIQPFEILFEGVEYIARAGWTPEGKYAWSILLDRSQTRLQIVLISPELFIPVEDDVMERQRLIESVPDSVTPLIIYEETTDIWINIHDIFHVFPQSHEEEIEFIFASECKTGFRHLYKITSILKESKYKRSSGGLPAPSDFKCPIKEEIAITSGEWEVLGRHGSNIQVDEVRRLVYFEGTKDSPLEHHLYVVSYVNPGEVTRLTDRGYSHSCCISQHCDFFISKYSNQKNPHCVSLYKLSSPEDDPTCKTKEFWATILDSAGPLPDYTPPEIFSFESTTGFTLYGMLYKPHDLQPGKKYPTVLFIYGGPQVQLVNNRFKGVKYFRLNTLASLGYVVVVIDNRGSCHRGLKFEGAFKYKMGQIEIDDQVEGLQYLASRYDFIDLDRVGIHGWSYGGYLSLMALMQRSDIFRVAIAGAPVTLWIFYDTGYTERYMGHPDQNEQGYYLGSVAMQAEKFPSEPNRLLLLHGFLDENVHFAHTSILLSFLVRAGKPYDLQIYPQERHSIRVPESGEHYELHLLHYLQENLGSRIAALKVI
B2: DPPIV: dipeptidyl peptidase IV, comparator enzyme (protein)
chain: MKTPWKVLLGLLGAAALVTIITVPVVLLNKGTDDATADSRKTYTLTDYLKNTYRLKLYSLRWISDHEYLYKQENNILVFNAEYGNSSVFLENSTFDEFGHSINDYSISPDGQFILLEYNYVKQWRHSYTASYDIYDLNKRQLITEERIPNNTQWVTWSPVGHKLAYVWNNDIYVKIEPNLPSYRITWTGKEDIIYNGITDWVYEEEVFSAYSALWWSPNGTFLAYAQFNDTEVPLIEYSFYSDESLQYPKTVRVPYPKAGAVNPTVKFFVVNTDSLSSVTNATSIQITAPASMLIGDHYLCDVTWATQERISLQWLRRIQNYSVMDICDYDESSGRWNCLVARQHIEMSTTGWVGRFRPSEPHFTLDGNSFYKIISNEEGYRHICYFQIDKKDCTFITKGTWEVIGIEALTSDYLYYISNEYKGMPGGRNLYKIQLSDYTKVTCLSCELNPERCQYYSVSFSKEAKYYQLRCSGPGLPLYTLHSSVNDKGLRVLEDNSALDKMLQNVQMPSKKLDFIILNETKFWYQMILPPHFDKSKKYPLLLDVYAGPCSQKADTVFRLNWATYLASTENIIVASFDGRGSGYQGDKIMHAINRRLGTFEVEDQIEAARQFSKMGFVDNKRIAIWGWSYGGYVTSMVLGSGSGVFKCGIAVAPVSRWEYYDSVYTERYMGLPTPEDNLDHYRNSTVMSRAENFKQVEYLLIHGTADDNVHFQQSAQISKALVDVGVDFQAMWYTDEDHGIASSTAHQHIYTHMSHFIKQCFSLP
modifications: left off: small tags and cut ends
notes: dipeptidyl peptidase IV, comparator enzyme

How the values were obtained:
DPP8 = biological target: T1, DPP8 (Homo sapiens, UniProt Q6V1X1); experiment: pH-dependence of DPP8 enzyme activity; type: biochemical
T1 construct: the full length DPP8 cDNA of 3.1 kb was cloned into the Xba I site of pcDNA3.1A/V5/His expression vector; expressed in transfected cells; host or cells: COS-7 (monkey kidney fibroblast) cells; clarified sonicated cell extract
Description: FIG. 7. DPP8 enzyme activity. (A) pH-dependence of DPP8 enzyme activity. (B) DPP8 and DPPIV enzyme kinetics. Means +/− SD of absorbance change per minute, multiplied by 1000 are shown. Curve fitting assumed Michaelis-Menten kinetics.
Enzyme assays were performed as described previously. Either clarified cell extract from 1×10^4 sonicated COS-7 cells or purified protein derived from 1×10^5 cells was incubated with substrate in 70 μL phosphate buffer, pH 7.4, for 30 min at 37° C., except where otherwise indicated. The specific DPPIV substrates, Gly-Pro-toluenesulfonate, H-Gly-Pro-p-nitroanilide (NA)/HCl (Sigma, St Louis, Mo., USA) and Gly-Pro-7-amino-4-trifluromethylcoumarin (Calbiochem, San Diego, Calif., USA) were tested. Other substrates tested were H-Ala-Pro-pNA/HCl, H-Arg-Pro-pNA acetate salt, H-Lys-Ala-pNA.2HCl, H-Asp-Pro-pNA, H-Ala-Ala-pNA/HCl, H-Ala-Ala-Pro-pNA/HCl, H-Ala-Ala-Phe-pNA, succinyl-Ala-Pro-pNA, H-Ala-Phe-Pro-pNA and Z-Ala-Pro-p-NA from Bachem (Switzerland). H-Ala-Pro-4-methoxyβNA/HCl, Z-Lys-Pro-4-methoxyβNAformate salt, H-Lys-Pro-4-methoxyβNA/HCl, Z-Ala-Pro-4-methoxyβNA, H-Gly-Pro-βNA and H-His-Ser-4-methoxyβNAacetate salt (Bachem) were tested for their ability to stain unfixed transfected cells. All inhibitors were (see Table 2) incubated with each purified enzyme in phosphate buffer, pH 7.4, for 15 min before the addition of substrate. […]

DPPIV = DPPIV (Homo sapiens, UniProt P27487); conditions: references [43,44]; cited from earlier work

Molecule	pH optimum of enzyme activity (DPP8)	pH optimum of enzyme activity (DPPIV)
B1	7.4	
B2		7.8
